This note sets out measurements from PMC4289617 (Journal of medicinal chemistry, 2010).

Assay [1] has as its target T1, WDR5Δ23 (WD repeat domain 5, residues 24–334) (human, UniProt P61964 24-334). The experiment in a line: fluorescence polarisation. On the technique in general: In fluorescence polarisation assays a small probe gives low polarisation when free and higher when bound to something large.
Assay [2] concerns the target T1, WDR5Δ23 (WD repeat domain 5, residues …). The experiment in a line: fluorescence polarisation. This is another data set of the same source.

Like-named read-outs stand apart in the source and are kept apart here. Me3 = trimethyl-lysine, K(Me3)

For the molecule Ac-RAEVHLRKS-NH2 [Ac-9mer (Ac-10mer without Ala1)], in assay [1], half-maximal inhibition (IC50) was put at 29 µM and affinity was put at a Ki of 6300 nM.

As to Ac-ARAEVH-NH2 [Ac-6mer], the Ki (commonly a measure of affinity in units of concentration, obtained from inhibition or displacement) in assay [1] turned out to be 90 nM.

In the case of H-ARTK(Me3)QTARKS-NH2 [H3-10mer-K4Me3 (H2N-ARTK(Me3)QTARKS-NH2)], in assay [2], it took 73 µM to reach half-maximal inhibition (IC50) and affinity was put at a Ki of 15.6 µM.

Take Ac-ARAEVHLRKS-NH2 [Ac-10mer (Ac-ARAEVHLRKS-NH2)]: in assay [1], the affinity, expressed as Ki, was 3 nM.

For Ac-ARTKQTARKS-NH2 [Ac-H3-10mer (Ac-ARTKQTARKS-NH2)], the Ki in assay [2] was under 0.001 µM.
